From publication doi:10.1101/340133

Key:
[1] = target: dynamic microtubules polymerized from αβ-tubulin on GMPCPP seeds (porcine) (UniProt P02554); experiment: TIRF microscopy of dynamic microtubules
[2] = target: dynamic microtubules polymerized from αβ-tubulin on GMPCPP seeds (porcine) (UniProt P02554); experiment: single molecule TIRF microscopy of dynamic microtubules

Chain of UniProt P02554 (P02554 whole entry, looked up): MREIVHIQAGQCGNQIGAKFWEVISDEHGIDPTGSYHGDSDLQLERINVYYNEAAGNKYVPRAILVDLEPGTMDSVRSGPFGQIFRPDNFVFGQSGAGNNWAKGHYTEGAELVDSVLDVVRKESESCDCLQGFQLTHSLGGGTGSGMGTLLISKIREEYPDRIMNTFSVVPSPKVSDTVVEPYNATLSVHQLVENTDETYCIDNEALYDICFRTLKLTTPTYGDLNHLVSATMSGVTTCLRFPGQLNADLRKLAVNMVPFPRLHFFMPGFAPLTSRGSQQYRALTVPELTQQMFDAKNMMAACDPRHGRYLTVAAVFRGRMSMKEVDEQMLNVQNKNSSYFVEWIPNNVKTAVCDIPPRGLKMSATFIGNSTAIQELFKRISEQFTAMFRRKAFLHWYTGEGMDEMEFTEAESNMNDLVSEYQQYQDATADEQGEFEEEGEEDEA

Binder | residence ratio at MT plus-ends (average) [1] | dwell time at MT plus-ends [2]
wt-Alp14 (residues 1-690) with C-terminal mNeonGreen (domain or fragment) MSQDQEEDYSKLPLESRIVHKVWKVRLSAYEECSKSFSLSADGSDNCFELWNNQSELWKSVLTDSNVAAQEAGTAAFVAYCRFSDPSHLLKAREISVLSISEKCLTSPRAGTRENALEALMLLVEADSAAPVIESIIPSLSARSPKVIASNVAAIASLVEQFGAKVIPSKMIIPHISNLFGHADKNVRKEASRLTVNIYRWTGDPLKDLLFKDLRPVQTKELESLFAELPTEPPKQTRFLKSQQPTSEPNVETQVEEQPALENEESEPEPSDDQFDLVEEVDVLPNVDPNLETLMASSKWKDRKEALDKLLPVLSQPKIKDNDFFNLVAILTKSVSKDANIMVVINAAHCIQAMAKGLRSNFSKYASTSINALLERSKEKKANVIESLSSAMDAVLATSSLDDLAELIASFAGNKNPQIKSSCFSLFSRSFSNMTSLPSKFTVDTCAKACVPGVSDTFEPVRSAAAEALGVLMKLVGERAINQYLSPLDDIRKSKIRSFYETATVKAKAPTKKSKVKPSKQEESKVVVPSNAKAVKKSVVPSSPVVPSPRKATNKSLSMDVSKGNAFENGPLLPRPTTRPVSRGLSRGTSSSLQQKVKASTPLNSGALNETVQNLKNMELDDPAPQPAKHSRVDRYEHPKVLEDNDSTISSLESLKRENEELREQLKVEHEENISMQKQLSELKGELNTL | 89.4% | 
SNAPf-tagged TOG1M Alp14 (residues 1-690) (domain or fragment, SNAP-Surface Atto 488 covalently attached to the SNAPf tag) MSQDQEEDYSKLPLESRIVHKVAKVRLSAYEECSKSFSLSADGSDNCFELWNNQSELWKSVLTDSNVAAQEAGTAAFVAYCRFSDPSHLLKAREISVLSISEKCLTSPAAGTRENALEALMLLVEADSAAPVIESIIPSLSARSPKVIASNVAAIASLVEQFGAKVIPSKMIIPHISNLFGHADKNVRKEASRLTVNIYAWTGDPLKDLLFKDLRPVQTKELESLFAELPTEPPKQTRFLKSQQPTSEPNVETQVEEQPALENEESEPEPSDDQFDLVEEVDVLPNVDPNLETLMASSKWKDRKEALDKLLPVLSQPKIKDNDFFNLVAILTKSVSKDANIMVVINAAHCIQAMAKGLRSNFSKYASTSINALLERSKEKKANVIESLSSAMDAVLATSSLDDLAELIASFAGNKNPQIKSSCFSLFSRSFSNMTSLPSKFTVDTCAKACVPGVSDTFEPVRSAAAEALGVLMKLVGERAINQYLSPLDDIRKSKIRSFYETATVKAKAPTKKSKVKPSKQEESKVVVPSNAKAVKKSVVPSSPVVPSPRKATNKSLSMDVSKGNAFENGPLLPRPTTRPVSRGLSRGTSSSLQQKVKASTPLNSGALNETVQNLKNMELDDPAPQPAKHSRVDRYEHPKVLEDNDSTISSLESLKRENEELREQLKVEHEENISMQKQLSELKGELNTL |  | 57.4 s
TOG1 inactivated Alp14 (TOG1M), residues 1-690, with C-terminal mNeonGreen (domain or fragment) MSQDQEEDYSKLPLESRIVHKVAKVRLSAYEECSKSFSLSADGSDNCFELWNNQSELWKSVLTDSNVAAQEAGTAAFVAYCRFSDPSHLLKAREISVLSISEKCLTSPAAGTRENALEALMLLVEADSAAPVIESIIPSLSARSPKVIASNVAAIASLVEQFGAKVIPSKMIIPHISNLFGHADKNVRKEASRLTVNIYAWTGDPLKDLLFKDLRPVQTKELESLFAELPTEPPKQTRFLKSQQPTSEPNVETQVEEQPALENEESEPEPSDDQFDLVEEVDVLPNVDPNLETLMASSKWKDRKEALDKLLPVLSQPKIKDNDFFNLVAILTKSVSKDANIMVVINAAHCIQAMAKGLRSNFSKYASTSINALLERSKEKKANVIESLSSAMDAVLATSSLDDLAELIASFAGNKNPQIKSSCFSLFSRSFSNMTSLPSKFTVDTCAKACVPGVSDTFEPVRSAAAEALGVLMKLVGERAINQYLSPLDDIRKSKIRSFYETATVKAKAPTKKSKVKPSKQEESKVVVPSNAKAVKKSVVPSSPVVPSPRKATNKSLSMDVSKGNAFENGPLLPRPTTRPVSRGLSRGTSSSLQQKVKASTPLNSGALNETVQNLKNMELDDPAPQPAKHSRVDRYEHPKVLEDNDSTISSLESLKRENEELREQLKVEHEENISMQKQLSELKGELNTL | 72.4% | 
C-terminally SNAPf-tagged wt-Alp14 (residues 1-690) (domain or fragment, SNAP-Surface Atto 488 covalently attached to the SNAPf tag (5-10 nM labeled diluted into 190-195 nM non-labeled)) MSQDQEEDYSKLPLESRIVHKVWKVRLSAYEECSKSFSLSADGSDNCFELWNNQSELWKSVLTDSNVAAQEAGTAAFVAYCRFSDPSHLLKAREISVLSISEKCLTSPRAGTRENALEALMLLVEADSAAPVIESIIPSLSARSPKVIASNVAAIASLVEQFGAKVIPSKMIIPHISNLFGHADKNVRKEASRLTVNIYRWTGDPLKDLLFKDLRPVQTKELESLFAELPTEPPKQTRFLKSQQPTSEPNVETQVEEQPALENEESEPEPSDDQFDLVEEVDVLPNVDPNLETLMASSKWKDRKEALDKLLPVLSQPKIKDNDFFNLVAILTKSVSKDANIMVVINAAHCIQAMAKGLRSNFSKYASTSINALLERSKEKKANVIESLSSAMDAVLATSSLDDLAELIASFAGNKNPQIKSSCFSLFSRSFSNMTSLPSKFTVDTCAKACVPGVSDTFEPVRSAAAEALGVLMKLVGERAINQYLSPLDDIRKSKIRSFYETATVKAKAPTKKSKVKPSKQEESKVVVPSNAKAVKKSVVPSSPVVPSPRKATNKSLSMDVSKGNAFENGPLLPRPTTRPVSRGLSRGTSSSLQQKVKASTPLNSGALNETVQNLKNMELDDPAPQPAKHSRVDRYEHPKVLEDNDSTISSLESLKRENEELREQLKVEHEENISMQKQLSELKGELNTL |  | 129 s
